This data set concerns the molecule itself. The experiment in a line: SEC. (Size exclusion chromatography separates by hydrodynamic size, large species first.)

Here are results for one protein from publication PMC7392197 (Journal of the American Chemical Society, 2020).

B1: His6-MBP-UvrC fusion protein (holo form, with [4Fe4S] cluster) (enzyme, E. coli, UniProt P0A8G0 1-610, looked up)
chain: MSDQFDAKAFLKTVTSQPGVYRMYDAGGTVIYVGKAKDLKKRLSSYFRSNLASRKTEALVAQIQQIDVTVTHTETEALLLEHNYIKLYQPRYNVLLRDDKSYPFIFLSGDTHPRLAMHRGAKHAKGEYFGPFPNGYAVRETLALLQKIFPIRQCENSVYRNRSRPCLQYQIGRCLGPCVEGLVSEEEYAQQVEYVRLFLSGKDDQVLTQLISRMETASQNLEFEEAARIRDQIQAVRRVTEKQFVSNTGDDLDVIGVAFDAGMACVHVLFIRQGKVLGSRSYFPKVPGGTELSEVVETFVGQFYLQGSQMRTLPGEILLDFNLSDKTLLADSLSELAGRKINVQTKPRGDRARYLKLARTNAATALTSKLSQQSTVHQRLTALASVLKLPEVKRMECFDISHTMGEQTVASCVVFDANGPLRAEYRRYNITGITPGDDYAAMNQVLRRRYGKAIDDSKIPDVILIDGGKGQLAQAKNVFAELDVSWDKNHPLLLGVAKGADRKAGLETLFFEPEGEGFSLPPDSPALHVIQHIRDESHDHAIGGHRKKRAKVKNTSSLETIEGVGPKRRQMLLKYMGGLQGLRNASVEEIAKVPGISQGLAEKIFWSLKH
On to B1, for which the “stoichiometry N” value amounted to 2.

Usually stoichiometry N stands for the number of molecules, sites or subunits per partner or assembly.
